Results published in publication PMC6497303, “Molecular understanding of calcium permeation through the open Orai channel” (PLoS Biology, 2019).

Biological target: the molecule itself
Experiment: crystal structure; purified dOrai-P288L in NG/NM detergent with POPC:POPE:POPG lipid, sitting drop, 17°C, sodium citrate pH 6.5, PEG400; 4.5 Å; 2 hexamers in each asymmetric unit

B1: Drosophila melanogaster Orai (dOrai) mutant (P288L) channel, amino acids 132 to 341 with C224S, C283T and P288L (domain or fragment, UniProt Q9U6B8 132-341, looked up)
chain: SMSQSGEDLHSPTYLSWRKLQLSRAKLKASSKTSALLSGFAMVAMVEVQLDHDTNVPPGMLIAFAICTTLLVAVHMLALMISTCILPNIETVSNLHSISLVHESPHERLHWYIETAWAFSTLLGLILFLLEIAILCWVKFYDLSPPAAWSATVVLILVMIIFMAFAIHFYRSLVSHKYEVTVSGIRELEMLKEQMEQDHLEHHNNIRNNG
notes: Orai, Drosophila melanogaster, UniProt Q9U6B8, residues 132 to 341 with C224S, C283T and P288L; codons optimised for Homo sapiens; PreScission site between Orai and eGFP; residues of the site may be left after 3C cleavage; also called dOrai-P288L; dOrai-P288L channel; not shown: eGFP, C-terminal, cleaved
  stoichiometry N: 6
